Laboratory results as given in US6391637.

How the values were obtained:
CD40/Fc fusion protein [1] = molecular target: T1, CD40/Fc fusion protein (human, UniProt P25942 21-193); assay: biosensor assay substantially as in Example 22 (CD40/Fc captured on the chip); Affinity Ka
T1 sequence (P25942 21-193): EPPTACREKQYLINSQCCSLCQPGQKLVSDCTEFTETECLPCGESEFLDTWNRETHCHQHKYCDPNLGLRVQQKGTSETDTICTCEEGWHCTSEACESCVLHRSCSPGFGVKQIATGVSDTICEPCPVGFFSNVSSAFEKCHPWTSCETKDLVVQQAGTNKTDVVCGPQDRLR

CD40/Fc fusion protein [2] = molecular target: T1, CD40/Fc fusion protein; assay: BIAcore biosensor; CD40/Fc captured on the chip; first experiment; K1 (site 1)
Method: (§1) This example illustrates the binding affinities of several different CD40-L constructs. Affinity experiments were conducted by biospecific interaction analysis (BIA) using a biosensor, an instrument that combines a biological recognition mechanism with a sensing device or transducer. An exemplary biosensor is BIAcore™, from Pharmacia Biosensor AB (Uppsala, Sweden; see Fagerstam L.G., Techniques in Protein Chemistry II, ed. J. J. Villafranca, Acad. Press, NY, 1991). BIAcore™ uses the optical phenomenon surface plasmon resonance (Kretschmann and Raether, Z. Naturforschung, Teil. A 23:2135, 1968) to monitor the interaction of two biological molecules. Molecule pairs having affinity constants in the range 10^5 to 10^10 M^-1, and association rate constants in the range of 10^3 to 10^6 M^-1s^-1, are suitable for characterization with BIAcore™.
(§2) The biosensor chips were coated with goat anti-human IgG_1 Fc, which was used to bind CD40/Fc (prepared as described in Example 1) to the chip. The different constructs of CD40-L were then added at increasing concentrations; the chip was regenerated between the different constructs by the addition of sodium hydroxide. Two separate experiments were performed. […] The resultant data were analyzed to determine the affinity and association rate constants of the different CD40-L constructs. […]

CD40/Fc fusion protein [3] = molecular target: T1, CD40/Fc fusion protein; assay: BIAcore biosensor; CD40/Fc captured on the chip; first experiment; K2 (site 2)
Method: as §1, §2

CD40/Fc fusion protein [4] = molecular target: T2, CD40/Fc fusion protein (human, UniProt P25942 21-193); assay: BIAcore biosensor; CD40/Fc captured on the chip; first experiment; K1 (site 1)
T2 construct: extracellular domain; also called sCD40/Fc; C40/Fc; not shown: remainder of the human IgG1 Fc region (hinge onwards), joined at a Bgl II site
Method: as §1, §2
T2 sequence (P25942 21-193): as above

CD40/Fc fusion protein [5] = molecular target: T2, CD40/Fc fusion protein; assay: BIAcore biosensor; CD40/Fc captured on the chip; first experiment; K2 (site 2)
Method: as §1, §2

B1: CD40 ligand/zipper domain fusion protein mutant 194.W (ligand, not shown: a dimerising Fc or GST; small tags and cut ends)
chain: MQKGDQNPQIAAHVISEASSKTTSVLQWAEKGYYTMSNNLVTLENGKQLTVKRQGLYYIYAQVTFCSNREASSQAPFIASLWLKSPGRFERILLRAANTHSSAKPCGQQSIHLGGVFELQPGASVFVNVTDPSQVSHGTGFTSFGLLKL
Q: B1 was tested. Which Ka (CD40/Fc fusion protein [1]) did it give?
A: The Ka was 1.8e+09 M⁻¹.

B2: dimeric murine CD40-L (Fc fusion, prepared substantially as in Example 14) (Fc fusion)
chain: DKVEEEVNLHEDFVFIKKLKRCNKGEGSLSLLNCEEMRRQFEDLVKDITLNKEEKKENSFEMQRGDEDPQIAAHVVSEANSNAASVLQWAKKGYYTMKSNLVMLENGKQLTVKREGLYYVYTQVTFCSNREPSSQRPFIVGLWLKPSSGSERILLKAANTHSSSQLCEQQSVHLGGVFELQAGASVFVNVTEASQVIHRVGFSSFGLLKL
Q: B2 was tested. Which Ka (CD40/Fc fusion protein [2]) did it give?
A: The Ka was 7e+09 M⁻¹.

Q: And the Ka (CD40/Fc fusion protein [3])?
A: The Ka was 4e+07 M⁻¹.

B3: CD40-L/FC2 soluble human CD40-L/Fc fusion protein (Fc fusion, not shown: a dimerising Fc or GST; small tags and cut ends)
chain: DKIEDERNLHEDFVFMKTIQRCNTGERSLSLLNCEEIKSQFEGFVKDIMLNKEETKKENSFEMQKGDQNPQIAAHVISEASSKTTSVLQWAEKGYYTMSNNLVTLENGKQLTVKRQGLYYIYAQVTFCSNREASSQAPFIASLCLKSPGRFERILLRAANTHSSAKPCGQQSIHLGGVFELQPGASVFVNVTDPSQVSHGTGFTSFGLLKL
notes: also called dimeric human CD40-L; Human Dimer
Q: For B3, which Ka (CD40/Fc fusion protein [4]) is on record?
A: Its Ka is 1.6e+11 M⁻¹.

Q: And the Ka (CD40/Fc fusion protein [5])?
A: The Ka was 7e+08 M⁻¹.
